Data on four substances can be found in publication PMC5093063.

What all share (experiment): SEC
Background: Size exclusion chromatography separates by hydrodynamic size, large species first.

In test [1] the target is Chimeric IN F-F-H (NTD and CCD of FIV, CTD of HIV-1) (FIV (Petaluma) | HIV-1) (UniProt P12497).
Test [2] addresses Chimeric IN F-H-F (NTD and CTD of FIV, CCD of HIV-1) (FIV (Petaluma) | HIV-1) (UniProt P12497).
In test [3] the target is Chimeric IN F-H-H (NTD of FIV, CCD and CTD of HIV-1) (FIV (Petaluma) | HIV-1) (UniProt P12497).
In test [4] the target is Chimeric IN H-F-F (NTD of HIV-1, CCD and CTD of FIV) (HIV-1 | FIV (Petaluma)) (UniProt P12497).

A word on the stoichiometry N: it is the number of molecules, sites or subunits per partner or assembly.

In turn, “Chimeric IN F-F-H (NTD and CCD of FIV, CTD of HIV-1) (from UniProt P12497 211-289) (enzyme)” returned a stoichiometry N in test [1] of 2.

In the case of “Chimeric IN F-H-F (NTD and CTD of FIV, CCD of HIV-1) (from UniProt P12497 53-210) (enzyme)”, the stoichiometry N in test [2] was 2.

In test [3], “Chimeric IN F-H-H (NTD of FIV, CCD and CTD of HIV-1) (from UniProt P12497) (enzyme)” displayed a stoichiometry N of 2.

Take “Chimeric IN H-F-F (NTD of HIV-1, CCD and CTD of FIV) (from UniProt P12497 2-52) (enzyme)”: in test [4], the stoichiometry N was 2.
